These results are taken from patent publication US20220119517A1 (NANJING SANHOME PHARMACEUTICAL, published 2022).

Assay [1] concerns the target T1, human Claudin18.2 (CLDN18.2), full length, on cells (human).
T1 construct: also called CLDN18.2-FL; HEK293-CLDN18.2 cells
As to the kind of experiment: FACS on NUGC4 cells, positive rate. The procedure:
(§1) The effect of the Fc-mutated humanized antibody on the binding to the target CLDN18.2 was identified by FACS. NUGC4 cells were digested using the gastric cancer cell digestion solution at 37° C. for 15 minutes; terminated by the complete culture medium, centrifuged at 1000 rpm for 5 minutes, the supernatant was discarded; the cells were resuspended with 2% fetal bovine serum-PBS diluent, the cells were adjusted to 1×10⁶ cells/ml, 100 μl of cell suspension was added to each well of the 96-well U-shaped-bottom plate; the antibody was diluted with 2% fetal bovine serum-PBS to final concentrations of 5 μg/ml, 1 μg/ml, 0.2 μg/ml, 0.04 μg/ml and 0.008 μg/ml, mixed with the cells in equal volume, incubated at 4° C. for 1 hour; centrifuged at 1000 rpm for 5 minutes, the supernatant was discarded; 200 μl of Cell Stain Buffer (Biolegend) was added to each well to wash twice, centrifuged at 1000 rpm for 5 minutes at each time and the supernatant was discarded; 100 μl of PE-anti human Fc antibody (Biolegend) was added, incubated at 4° C. for 1 hour; washed twice using Cell Stain Buffer (Biolegend), centrifuged at 1000 rpm for 5 minutes at each time and the supernatant was discarded. 300 μl of Cell Stain Buffer was added to resuspend the cells, detected with BD FACS Jazz flow analyzer.

In assay [2] the target is T1, human Claudin18.2 (CLDN18.2), full …. As to the kind of experiment: FACS on NUGC4 cells. The procedure:
as §1

For assay [3] the target is unchanged. As to the kind of experiment: cell-based or functional assay.
Assay [4] shares this target. As to the kind of experiment: cell-based or functional assay. This is another data set of the same source.

B1: Hu330-1-5M (antibody, human IgG1, kappa)
heavy: EVQLVESGGGLVQPGGSLRLSCAASGFGFSDYGMAWVRQAPGKGLEWVSFISNSAYSIYYADTVTGRFTISRDNAKNSLYLQMNSLRAEDTAVYYCARLGRGNSFAYWGQGTLVTVSSASTKGPSVFPLAPSSKSTSGGTAALGCLVKDYFPEPVTVSWNSGALTSGVHTFPAVLQSSGLYSLSSVVTVPSSSLGTQTYICNVNHKPSNTKVDKKVEPKSCDKTHTCPPCPAPELLGGPSVFLLPPKPKDTLMISRTPEVTCVVVDVSHEDPEVKFNWYVDGVEVHNAKTKPPEEQYNSTLRVVSILTVLHQDWLNGKEYKCKVSNKALPAPIEKTISKAKGQPREPQVYTLPPSRDELTKNQVSLTCLVKGFYPSDIAVEWESNGQPENNYKTTPLVLDSDGSFFLYSKLTVDKSRWQQGNVFSCSVMHEALHNHYTQKSLSLSPGK
light: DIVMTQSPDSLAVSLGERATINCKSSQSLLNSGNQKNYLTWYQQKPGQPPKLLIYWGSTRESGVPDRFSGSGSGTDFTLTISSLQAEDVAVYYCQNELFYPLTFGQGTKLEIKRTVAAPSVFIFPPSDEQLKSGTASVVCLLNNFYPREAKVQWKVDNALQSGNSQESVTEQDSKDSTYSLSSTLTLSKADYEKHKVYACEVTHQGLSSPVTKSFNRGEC
notes: also called Fc mutant of the humanized antibody; Fc-mutated humanized antibody
For B1, in assay [1], the EC50 was 0.76 nM and the “Top (%)” value was 92.4%. The “fold increase of binding activity over IMAB362-similar-hG1” value in assay [2] was determined as 15 fold. Further, the “ADCC cytotoxicity by LDH method, PBMC effectors, EC50” value in assay [3] is 0.31 nM. For the same molecule, in assay [4], the “ADCC activity by luciferase labeling, EC50” value turned out to be 0.17 nM and the “ADCC activity by luciferase labeling, Top” value worked out at 100000.
